For this assay, the target named is Protein A expressed on Staphylococcus aureus (Staphylococcus aureus) (UniProt P38507). The assay can be described thus: yeast display; one round of selection with cell-surface biotinylated S. aureus and magnetic streptavidin-coated beads; GFP+ yeast counted by flow cytometry.

Substance “Fc region of the human IgG1 protein N297Q (aglycosylated) mutant, displayed on the surface of yeast” registered a fold enrichment of GFP+ yeast of 30 fold.

(Values after patent US20210079558A1.)
